From the RNAGym collection of RNA variant scans (doi:10.7554/elife.90254) come the findings set out here.

B1: LINE1-full (parent)
chain: UACGUAGGUGGUUUUCCCCUGAUAGUGCUAAGGGGGCCUGGAAGUUUGGACUGGGCAGAGCUCAACACAGCGUGGCAAAGUGGCUGUGGCUAGACUGCCUCUCUGGAUUCCUCGUCACUCAGCAGGGCAUCUCUGAGAGAAAUGCC

Variants of B1 are the subject of the data set. Briefly: self-cleavage, relative activity (ratio to wild type); higher = more cleavage; in vitro, sequencing; the parent is a self-cleaving ribozyme.
For the variant UACGUAGGUGGUUUUCCCCUGAAAGUGCUAAGGGGGCCUGGAAGUUUGGACUGGGCAGAGCUCAACACAGCGUGGCAAAGUGGCAGUGGCUAGACUGCCUCUCUGGAUUCCUCGUCACUCAGCAGGGCAUCUCUGAGAGAAAUGCC, the self-cleavage was found to be 0.08.
Consider UACGUAGGUGGUUUUCCCCUGAAAGUGCUAAGGGGGCCUGGAAGUUUGGACCGGGCAGAGCUCAACACAGCGUGGCAAAGUGGCUGUGGCUAGACUGCCUCUCUGGAUUCCUCGUCACUCAGCAGGGCAUCUCUGAGAGAAAUGCC, for which the self-cleavage came to 0.75.
Take UACGUAGGUGGUUUUCCCCUGAAAGUGCUAAGGGGGCCUGGAAGUUUGGACUGGGCAGAGCUCAACACAGCGUGGCAAAGUGGCUGUGGCUAGACUGCCACUCUGGAUUCCUCGUCACUCAGCAGGGCAUCUCUGAGAGAAAUGCC: the self-cleavage turned out to be 0.86.
As for UACGUAGGUGGUUUUCCCCUGAAAGUGCUAAGGGGGCCUGGAAGUUUGGACUGGGCAGAGCUCAACACAGCGUGGCAAAGUGGCUGUGGCUAGACUGCCCCUCUGGAUUCCUCGUCACUCAGCAGGGCAUCUCUGAGAGAAAUGCC, the self-cleavage came to 1.26.
Turning to UACGUAGGUGGUUUUCCCCUGAAAGUGCUAAGGGGGCCUGGAAGUUUGGACUGGGCAGAGCUCAACACAGCGUGGCAAAGUGGCUGUGGCUAGACAGCCUCUCUGGAUUCCUCGUCACUCAGCAGGGCAUCUCUGAGAGAAAUGCC, the self-cleavage amounted to 0.08.
To UACGUAGGUGGUUUUCCCCUGAAAGUGCUAAGGGGGCCUGGAAGUUUGGACUGGGCAGAGCUCAACACAGCGUGGCAAAGUGGCUGUGGCUAGACCGCCUCUCUGGAUUCCUCGUCACUCAGCAGGGCAUCUCUGAGAGAAAUGCC belongs 0.19.
To UACGUAGGUGGUUUUCCCCUGAAAGUGCUAAGGGGGCCUGGAAGUUUGGACUGGGCAGAGCUCAACACAGCGUGGCAAAGUGGCUGUGGCUAGACUGCCUCUCUUGAUUCCUCGUCACUCAGCAGGGCAUCUCUGAGAGAAAUGCC belongs 1.36; to UACGUAGGUGGUUUUCCCCUGAAAGUGCUAAGGGGGCCCGGAAGUUUGGACUGGGCAGAGCUCAACACAGCGUGGCAAAGUGGCUGUGGCUAGACUGCCUCUCUGGAUUCCUCGUCACUCAGCAGGGCAUCUCUGAGAGAAAUGCC, 0.65.
To UACGUAGGUGGUUUUCCCCUGAAAGUGCUAAGGGGGCCUGGAAGUGUGGACUGGGCAGAGCUCAACACAGCGUGGCAAAGUGGCUGUGGCUAGACUGCCUCUCUGGAUUCCUCGUCACUCAGCAGGGCAUCUCUGAGAGAAAUGCC belongs 0.35; to UACGUAGGUGGUUUUCCCCUGAAAGUGCUAAGGGGGCCUGGAAGUCUGGACUGGGCAGAGCUCAACACAGCGUGGCAAAGUGGCUGUGGCUAGACUGCCUCUCUGGAUUCCUCGUCACUCAGCAGGGCAUCUCUGAGAGAAAUGCC, 1.57.
For UACGUAGGUGGUUUUCCCCUGAAAGUGCUAAGGGGGCCUGGAAGUUAGGACUGGGCAGAGCUCAACACAGCGUGGCAAAGUGGCUGUGGCUAGACUGCCUCUCUGGAUUCCUCGUCACUCAGCAGGGCAUCUCUGAGAGAAAUGCC, the self-cleavage came out at 1.91.
The result for UACGUAGGUGGUUUUCCCCUGAAAGUGCUAAGGGGGCCUGGAAGUUUGGACUGGGCAGAGCUCAACACAGCGUGGCAAAGUGGCUGUGGCUAGACUGCCUCUCUGGAUUCCUCGUCACUAAGCAGGGCAUCUCUGAGAGAAAUGCC reads 0.82; that for UACGUAGGUGGUUUUCCCCUGAAAGUGCUAAGGGGGCCUGGAAGUUUGGACUGGGCAGAGCUCAACACAGCGUGGCAAAGUGGCUGUGGCUAGACUGCCUCUCUGGAUUCCUCGUCACUCAGCAGGGCAUCUCUGAGAGAAAUGCU, 1.27.
Regarding UACGUAGGUGGUUUUCCCCUGAAAGUGCUAAGGGGGCCUGGAAGUUUGGACUGAGCAGAGCUCAACACAGCGUGGCAAAGUGGCUGUGGCUAGACUGCCUCUCUGGAUUCCUCGUCACUCAGCAGGGCAUCUCUGAGAGAAAUGCC, the self-cleavage is 0.96.
In the case of UACGUAGGUGGUUUUCCCCUGAAAGUGCUAAGGGGGCCUGGAAGUUUGGACUGGGCAGAGCACAACACAGCGUGGCAAAGUGGCUGUGGCUAGACUGCCUCUCUGGAUUCCUCGUCACUCAGCAGGGCAUCUCUGAGAGAAAUGCC, the self-cleavage came to 0.05.
The result for UACGUAGGUGGUUUUCCCCUGAAAGUGCUAAGGGGGCCUGGAAGUUUGGACUGGGCAGAGCCCAACACAGCGUGGCAAAGUGGCUGUGGCUAGACUGCCUCUCUGGAUUCCUCGUCACUCAGCAGGGCAUCUCUGAGAGAAAUGCC reads 0; that for UACGUAGGUGGUUUUCCCCUGAAAGUGCUAAGGGGGCCUGGAAGUUUGGACUGGGCAGAGCUCAACACAGCGUGGCAAAGCGGCUGUGGCUAGACUGCCUCUCUGGAUUCCUCGUCACUCAGCAGGGCAUCUCUGAGAGAAAUGCC, 0.86.
To UACGUAGGUGGUUUUCCCCUGAAAGUGCUAAGGGGGCCUGGAAGUUUGGACUGGGCAGAGCUCAACACAGCGUGGCAAAGUGGCUGAGGCUAGACUGCCUCUCUGGAUUCCUCGUCACUCAGCAGGGCAUCUCUGAGAGAAAUGCC belongs 0.09; to UACGUAGGUGGUUUUCCCCUGAAAGUGCUAAGGGGGCCUGGAAGUUUGGACUGGGCAGAGCUCAACACAGCGCGGCAAAGUGGCUGUGGCUAGACUGCCUCUCUGGAUUCCUCGUCACUCAGCAGGGCAUCUCUGAGAGAAAUGCC, 1.24; to UACGUAGGUGGUUUUCCCCUGAAAGUGCUAAGGGGGCCUGGAAGCUUGGACUGGGCAGAGCUCAACACAGCGUGGCAAAGUGGCUGUGGCUAGACUGCCUCUCUGGAUUCCUCGUCACUCAGCAGGGCAUCUCUGAGAGAAAUGCC, 0.71.
